1 protein from patent US20160083712A1 (UNIVERSITY OF LEICESTER, published 2016) can be followed below.

This series concerns the molecule itself. Briefly: crystal structure, PISA analysis of assemblies.

B1: CSN51-257 wild type (human CSN5 residues 1-257, GST tag cleaved off) (enzyme)
chain: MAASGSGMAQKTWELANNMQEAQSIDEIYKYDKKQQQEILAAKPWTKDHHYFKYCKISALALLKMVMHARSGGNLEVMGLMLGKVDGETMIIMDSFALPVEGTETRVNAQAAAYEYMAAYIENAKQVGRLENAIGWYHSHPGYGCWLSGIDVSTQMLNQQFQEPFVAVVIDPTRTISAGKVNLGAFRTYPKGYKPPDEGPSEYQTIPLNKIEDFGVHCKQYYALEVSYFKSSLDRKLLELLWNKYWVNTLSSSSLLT
notes: Purified after cleavage by GST-3C protease; Crystallised form (PDB 4F70; SeMet-labelled for the crystal); Monomer-dimer equilibrium in solution; also called WT protein
In the case of B1, the binding result is listed as “binds”.
